These results are taken from patent publication US20150045540A1 (published 2015).

Sequences and labels used below:
T1: Placenta Growth Factor (PlGF), human (human, UniProt P49763 21-149)
T1 chain: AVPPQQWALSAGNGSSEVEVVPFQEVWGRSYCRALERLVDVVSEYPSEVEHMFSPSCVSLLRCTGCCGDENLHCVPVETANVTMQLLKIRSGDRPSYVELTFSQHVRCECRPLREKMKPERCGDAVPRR

B1: HC 2/SLC 2 (antibody)
chain 1: GQGTLVTVSSASQPVLHQPPAMSSALGTTIRLTCTLRNDHDIGVYSVYWYQQRPGHPPRFLLRYFSQSDKSQGPQVPPRFSGSKDVARNRGYLSISELQPEDEAMYYCAMGARSRCWPRGFQSKHNSVTHVFGSGTQLTVLSQPKATPSVTLFPPSSEELQANKATLVCLMNDFYPGILTVTWKADGTPITQGVEMTTPSKQSNNKYAASSYLSLTPEQWRSRRSYSCQVMHEGSTVEKTVAPAECS
chain 2: MSWAPVLLMLFVYCTGCGPQPVLHQPPAMSSALGTTIRLTCTLRNDHDIGVYSVYWYQQRPGHPPRFLLRYFSQSDKSQGPQVPPRFSGSKDVARNRGYLSISVTHVFGSGTQLTVLSQQVQLVQ
B2: HC 10/SLC 2 (antibody)
chain 1: GQGTLVTVSSASTKGPSVFPQPVLHQPPAMSSALGTTIRLTCTLRNDHDIGVYSVYWYQQRPGHPPRFLLRYFSQSDKSQGPQVPPRFSGSKDVARNRGYLSISELQPEDEAMYYCAMGARSRCWPRGFQSKHNSVTHVFGSGTQLTVLSQPKATPSVTLFPPSSEELQANKATLVCLMNDFYPGILTVTWKADGTPITQGVEMTTPSKQSNNKYAASSYLSLTPEQWRSRRSYSCQVMHEGSTVEKTVAPAECS
chain 2: B1 chain 2
B3: HC 5/SLC 8 (antibody)
chain 1: GQGTLVTVSSASTKGQPVLHQPPAMSSALGTTIRLTCTLRNDHDIGVYSVYWYQQRPGHPPRFLLRYFSQSDKSQGPQVPPRFSGSKDVARNRGYLSISELQPEDEAMYYCAMGARSRCWPRGFQSKHNSVTHVFGSGTQLTVLSQPKATPSVTLFPPSSEELQANKATLVCLMNDFYPGILTVTWKADGTPITQGVEMTTPSKQSNNKYAASSYLSLTPEQWRSRRSYSCQVMHEGSTVEKTVAPAECS
chain 2: MSWAPVLLMLFVYCTGCGPQPVLHQPPAMSSALGTTIRLTCTLRNDHDIGVYSVYWYQQRPGHPPRFLLRYFSQSDKSQGPQVPPRFSGSKDVARNRGYLSISVTHVFGSGTQLTVLSQPKATPSQVQLVQ
B4: HC 9/SLC 6 (antibody)
chain 1: GQGTLVTVSSASTKGPSVFQPVLHQPPAMSSALGTTIRLTCTLRNDHDIGVYSVYWYQQRPGHPPRFLLRYFSQSDKSQGPQVPPRFSGSKDVARNRGYLSISELQPEDEAMYYCAMGARSRCWPRGFQSKHNSVTHVFGSGTQLTVLSQPKATPSVTLFPPSSEELQANKATLVCLMNDFYPGILTVTWKADGTPITQGVEMTTPSKQSNNKYAASSYLSLTPEQWRSRRSYSCQVMHEGSTVEKTVAPAECS
chain 2: MSWAPVLLMLFVYCTGCGPQPVLHQPPAMSSALGTTIRLTCTLRNDHDIGVYSVYWYQQRPGHPPRFLLRYFSQSDKSQGPQVPPRFSGSKDVARNRGYLSISVTHVFGSGTQLTVLSQPKATQVQLVQ
B5: HC 4/SLC 15 (antibody)
chain 1: GQGTLVTVSSASTKQPVLHQPPAMSSALGTTIRLTCTLRNDHDIGVYSVYWYQQRPGHPPRFLLRYFSQSDKSQGPQVPPRFSGSKDVARNRGYLSISELQPEDEAMYYCAMGARSRCWPRGFQSKHNSVTHVFGSGTQLTVLSQPKATPSVTLFPPSSEELQANKATLVCLMNDFYPGILTVTWKADGTPITQGVEMTTPSKQSNNKYAASSYLSLTPEQWRSRRSYSCQVMHEGSTVEKTVAPAECS
chain 2: MSWAPVLLMLFVYCTGCGPQPVLHQPPAMSSALGTTIRLTCTLRNDHDIGVYSVYWYQQRPGHPPRFLLRYFSQSDKSQGPQVPPRFSGSKDVARNRGYLSISVTHVFGSGTQLTVLSQPKATPSVTGGGGSQVQLVQ
B6: HC 2/SLC 15 (antibody)
chain 1: B1 chain 1
chain 2: B5 chain 2
B7: HC 4/SLC 9 (antibody)
chain 1: B5 chain 1
chain 2: MSWAPVLLMLFVYCTGCGPQPVLHQPPAMSSALGTTIRLTCTLRNDHDIGVYSVYWYQQRPGHPPRFLLRYFSQSDKSQGPQVPPRFSGSKDVARNRGYLSISVTHVFGSGTQLTVLSQPKATPSVQVQLVQ
B8: HC 3/SLC 10 (antibody)
chain 1: GQGTLVTVSSASTQPVLHQPPAMSSALGTTIRLTCTLRNDHDIGVYSVYWYQQRPGHPPRFLLRYFSQSDKSQGPQVPPRFSGSKDVARNRGYLSISELQPEDEAMYYCAMGARSRCWPRGFQSKHNSVTHVFGSGTQLTVLSQPKATPSVTLFPPSSEELQANKATLVCLMNDFYPGILTVTWKADGTPITQGVEMTTPSKQSNNKYAASSYLSLTPEQWRSRRSYSCQVMHEGSTVEKTVAPAECS
chain 2: MSWAPVLLMLFVYCTGCGPQPVLHQPPAMSSALGTTIRLTCTLRNDHDIGVYSVYWYQQRPGHPPRFLLRYFSQSDKSQGPQVPPRFSGSKDVARNRGYLSISVTHVFGSGTQLTVLSQPKATPSVTQVQLVQ
B9: HC 8/SLC 10 (antibody)
chain 1: GQGTLVTVSSASTKGPSVQPVLHQPPAMSSALGTTIRLTCTLRNDHDIGVYSVYWYQQRPGHPPRFLLRYFSQSDKSQGPQVPPRFSGSKDVARNRGYLSISELQPEDEAMYYCAMGARSRCWPRGFQSKHNSVTHVFGSGTQLTVLSQPKATPSVTLFPPSSEELQANKATLVCLMNDFYPGILTVTWKADGTPITQGVEMTTPSKQSNNKYAASSYLSLTPEQWRSRRSYSCQVMHEGSTVEKTVAPAECS
chain 2: B8 chain 2
B10: HC 6/SLC 10 (antibody)
chain 1: GQGTLVTVSSASTKGPQPVLHQPPAMSSALGTTIRLTCTLRNDHDIGVYSVYWYQQRPGHPPRFLLRYFSQSDKSQGPQVPPRFSGSKDVARNRGYLSISELQPEDEAMYYCAMGARSRCWPRGFQSKHNSVTHVFGSGTQLTVLSQPKATPSVTLFPPSSEELQANKATLVCLMNDFYPGILTVTWKADGTPITQGVEMTTPSKQSNNKYAASSYLSLTPEQWRSRRSYSCQVMHEGSTVEKTVAPAECS
chain 2: B8 chain 2
B11: HC 4/SLC 10 (antibody)
chain 1: B5 chain 1
chain 2: B8 chain 2

Hepatocyte Growth Factor (HGF), human, sequence (P14210 32-728): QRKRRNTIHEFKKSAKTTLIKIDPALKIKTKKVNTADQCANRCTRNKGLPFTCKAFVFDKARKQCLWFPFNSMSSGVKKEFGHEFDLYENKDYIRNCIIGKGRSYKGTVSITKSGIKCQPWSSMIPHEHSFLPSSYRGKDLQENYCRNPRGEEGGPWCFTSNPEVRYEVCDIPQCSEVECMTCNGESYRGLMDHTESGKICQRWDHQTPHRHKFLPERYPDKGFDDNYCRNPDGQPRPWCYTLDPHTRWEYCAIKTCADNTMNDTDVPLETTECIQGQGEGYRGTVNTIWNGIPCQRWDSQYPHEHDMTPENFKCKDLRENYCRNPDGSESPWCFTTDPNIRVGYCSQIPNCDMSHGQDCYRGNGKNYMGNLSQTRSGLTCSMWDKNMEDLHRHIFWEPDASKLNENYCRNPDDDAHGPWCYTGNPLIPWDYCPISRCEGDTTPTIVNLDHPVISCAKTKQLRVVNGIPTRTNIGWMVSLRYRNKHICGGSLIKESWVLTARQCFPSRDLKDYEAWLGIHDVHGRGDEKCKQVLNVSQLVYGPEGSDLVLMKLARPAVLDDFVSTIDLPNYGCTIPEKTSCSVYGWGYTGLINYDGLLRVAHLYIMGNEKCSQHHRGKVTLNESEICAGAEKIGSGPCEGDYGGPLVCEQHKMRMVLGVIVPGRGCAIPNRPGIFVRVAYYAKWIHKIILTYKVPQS

One assay deals with T1, Placenta Growth Factor (PlGF), human. As to the kind of experiment: ELISA.
B1: the EC50 came out at 0.049 nM. This lies in the picomolar range. Same read-out and setting: to B2 belongs 0.166 nM; to B3, 0.115 nM; to B4, 0.096 nM.

The molecule B5 yielded an EC50 of 0.057 nM. This EC50 lies about 1.7-fold lower than the previous one. Turning to B6, the EC50 turned out to be 0.053 nM. Still for that read-out and setting: to B7 belongs 0.101 nM.

Another assay concerns the target Hepatocyte Growth Factor (HGF), human (human, UniProt P14210 32-728). In words: ELISA.
B1 yielded an EC50 of 0.051 nM. On the same count and under the same terms, to B2 belongs 0.063 nM; to B8, approximately 0.041 nM; to B9, approximately 0.041 nM.

B10: the EC50 is approximately 0.041 nM. The same measure, in the same setting: the figure for B3 is 0.055 nM; for B4 it is 0.059 nM. The same measure, in the same setting: to B5 belongs approximately 0.041 nM; to B6, 0.041 nM; to B7, 0.045 nM. On the same count and under the same terms, the figure for B11 is approximately 0.041 nM.
